This passage reports IC50 results from patent publication US20240018188A1.

What is called IC50 is the concentration that inhibits the measured activity by half. A low value points to inhibition by little substance.

[ ]: non-standard residue; d: D form. The star is where a group is joined. Dansyl = CN(C)c1cccc2c(S(=O)(=O)*)cccc12; 2Nal = N[C@@H](Cc1ccc2ccccc2c1)C(=O)O; dNle = CCCC[C@@H](N)C(=O)O; Ahx = NCCCCCC(=O)O; βAla = NCCC(=O)O; Sar = CNCC(=O)O

The chains are these.
B1: Compound 21 (peptide)
peptide: Ac-[dL][dNle][dR][dS][dV][dR][dL][dR][dV]G[dL][dR][dR][dR][dR][dR][dR][Sar][Sar]-OMe
SMILES: CCCC[C@@H](NC(=O)[C@@H](CC(C)C)NC(C)=O)C(=O)N[C@H](CCCNC(=N)N)C(=O)N[C@H](CO)C(=O)N[C@@H](C(=O)N[C@H](CCCNC(=N)N)C(=O)N[C@H](CC(C)C)C(=O)N[C@H](CCCNC(=N)N)C(=O)N[C@@H](C(=O)NCC(=O)N[C@H](CC(C)C)C(=O)N[C@H](CCCNC(=N)N)C(=O)N[C@H](CCCNC(=N)N)C(=O)N[C@H](CCCNC(=N)N)C(=O)N[C@H](CCCNC(=N)N)C(=O)N[C@H](CCCNC(=N)N)C(=O)N[C@H](CCCNC(=N)N)C(=O)N(C)CC(=O)N(C)CC(=O)OC)C(C)C)C(C)C
B2: Compound 22 (peptide)
peptide: Ac-[dL][dNle][dR][βAla][dV][dR][dL][dR][dV][βAla][dL][dR][dK][dR][dR][dR][dR][dR]G[2Nal]-NH2
SMILES: CCCC[C@@H](NC(=O)[C@@H](CC(C)C)NC(C)=O)C(=O)N[C@H](CCCNC(=N)N)C(=O)NCCC(=O)N[C@@H](C(=O)N[C@H](CCCNC(=N)N)C(=O)N[C@H](CC(C)C)C(=O)N[C@H](CCCNC(=N)N)C(=O)N[C@@H](C(=O)NCCC(=O)N[C@H](CC(C)C)C(=O)N[C@H](CCCNC(=N)N)C(=O)N[C@H](CCCCN)C(=O)N[C@H](CCCNC(=N)N)C(=O)N[C@H](CCCNC(=N)N)C(=O)N[C@H](CCCNC(=N)N)C(=O)N[C@H](CCCNC(=N)N)C(=O)N[C@H](CCCNC(=N)N)C(=O)NCC(=O)N[C@@H](Cc1ccc2ccccc2c1)C(N)=O)C(C)C)C(C)C
B3: Compound 25 (peptide)
peptide: Ac-[dL][dNle][dR][dS][dV][dR][dL][dR][dV]G[dL][dR][Ahx][dR][Ahx][dR][Ahx][dR][Ahx][dR][Ahx][dR]-NH2
SMILES: CCCC[C@@H](NC(=O)[C@@H](CC(C)C)NC(C)=O)C(=O)N[C@H](CCCNC(=N)N)C(=O)N[C@H](CO)C(=O)N[C@@H](C(=O)N[C@H](CCCNC(=N)N)C(=O)N[C@H](CC(C)C)C(=O)N[C@H](CCCNC(=N)N)C(=O)N[C@@H](C(=O)NCC(=O)N[C@H](CC(C)C)C(=O)N[C@H](CCCNC(=N)N)C(=O)NCCCCCC(=O)N[C@H](CCCNC(=N)N)C(=O)NCCCCCC(=O)N[C@H](CCCNC(=N)N)C(=O)NCCCCCC(=O)N[C@H](CCCNC(=N)N)C(=O)NCCCCCC(=O)N[C@H](CCCNC(=N)N)C(=O)NCCCCCC(=O)N[C@H](CCCNC(=N)N)C(N)=O)C(C)C)C(C)C
B4: Compound 20 (peptide)
peptide: Dansyl-[Sar][dL][dNle][dR][dS][dV][dR][dL][dR][dV]G[dL][dR][dR][dR][dR][dR][dR][Sar][Sar]-OMe
SMILES: CCCC[C@@H](NC(=O)[C@@H](CC(C)C)NC(=O)CN(C)S(=O)(=O)c1cccc2c(N(C)C)cccc12)C(=O)N[C@H](CCCNC(=N)N)C(=O)N[C@H](CO)C(=O)N[C@@H](C(=O)N[C@H](CCCNC(=N)N)C(=O)N[C@H](CC(C)C)C(=O)N[C@H](CCCNC(=N)N)C(=O)N[C@@H](C(=O)NCC(=O)N[C@H](CC(C)C)C(=O)N[C@H](CCCNC(=N)N)C(=O)N[C@H](CCCNC(=N)N)C(=O)N[C@H](CCCNC(=N)N)C(=O)N[C@H](CCCNC(=N)N)C(=O)N[C@H](CCCNC(=N)N)C(=O)N[C@H](CCCNC(=N)N)C(=O)N(C)CC(=O)N(C)CC(=O)OC)C(C)C)C(C)C
B5: Compound 12 (peptide)
peptide: Ac-[dL][dNle][dR]G[dV][dR][dL][dR][dV]G[dL][dR][dK][dR][dR][dR][dR][dR]G[2Nal]-NH2
SMILES: CCCC[C@@H](NC(=O)[C@@H](CC(C)C)NC(C)=O)C(=O)N[C@H](CCCNC(=N)N)C(=O)NCC(=O)N[C@@H](C(=O)N[C@H](CCCNC(=N)N)C(=O)N[C@H](CC(C)C)C(=O)N[C@H](CCCNC(=N)N)C(=O)N[C@@H](C(=O)NCC(=O)N[C@H](CC(C)C)C(=O)N[C@H](CCCNC(=N)N)C(=O)N[C@H](CCCCN)C(=O)N[C@H](CCCNC(=N)N)C(=O)N[C@H](CCCNC(=N)N)C(=O)N[C@H](CCCNC(=N)N)C(=O)N[C@H](CCCNC(=N)N)C(=O)N[C@H](CCCNC(=N)N)C(=O)NCC(=O)N[C@@H](Cc1ccc2ccccc2c1)C(N)=O)C(C)C)C(C)C
B6: Compound 14 (peptide)
peptide: Ac-[dL][dNle][dR][dS][dR][dR][dL][dR][dV]G[dL][dR][dK][dR][dR][dR][dR][dR]G[2Nal]-NH2
SMILES: CCCC[C@@H](NC(=O)[C@@H](CC(C)C)NC(C)=O)C(=O)N[C@H](CCCNC(=N)N)C(=O)N[C@H](CO)C(=O)N[C@H](CCCNC(=N)N)C(=O)N[C@H](CCCNC(=N)N)C(=O)N[C@H](CC(C)C)C(=O)N[C@H](CCCNC(=N)N)C(=O)N[C@@H](C(=O)NCC(=O)N[C@H](CC(C)C)C(=O)N[C@H](CCCNC(=N)N)C(=O)N[C@H](CCCCN)C(=O)N[C@H](CCCNC(=N)N)C(=O)N[C@H](CCCNC(=N)N)C(=O)N[C@H](CCCNC(=N)N)C(=O)N[C@H](CCCNC(=N)N)C(=O)N[C@H](CCCNC(=N)N)C(=O)NCC(=O)N[C@@H](Cc1ccc2ccccc2c1)C(N)=O)C(C)C
B7: Compound 23 (peptide)
peptide: Ac-[dL][dNle][dR][dA][dV][dR][dL][dR][dV][βAla][dL][dR][Ahx][dR][Ahx][dR][Ahx][dR][Ahx][dR][Ahx][dR]-NH2
SMILES: CCCC[C@@H](NC(=O)[C@@H](CC(C)C)NC(C)=O)C(=O)N[C@H](CCCNC(=N)N)C(=O)N[C@H](C)C(=O)N[C@@H](C(=O)N[C@H](CCCNC(=N)N)C(=O)N[C@H](CC(C)C)C(=O)N[C@H](CCCNC(=N)N)C(=O)N[C@@H](C(=O)NCCC(=O)N[C@H](CC(C)C)C(=O)N[C@H](CCCNC(=N)N)C(=O)NCCCCCC(=O)N[C@H](CCCNC(=N)N)C(=O)NCCCCCC(=O)N[C@H](CCCNC(=N)N)C(=O)NCCCCCC(=O)N[C@H](CCCNC(=N)N)C(=O)NCCCCCC(=O)N[C@H](CCCNC(=N)N)C(=O)NCCCCCC(=O)N[C@H](CCCNC(=N)N)C(N)=O)C(C)C)C(C)C
B8: Compound 16 (peptide)
peptide: Ac-[dL][dNle][dR][dS][dV][dR][dL][dR][dNle]G[dL][dR][dK][dR][dR][dR][dR][dR]G[2Nal]-NH2
SMILES: CCCC[C@@H](NC(=O)[C@@H](CCCNC(=N)N)NC(=O)[C@@H](CC(C)C)NC(=O)[C@@H](CCCNC(=N)N)NC(=O)[C@H](NC(=O)[C@@H](CO)NC(=O)[C@@H](CCCNC(=N)N)NC(=O)[C@@H](CCCC)NC(=O)[C@@H](CC(C)C)NC(C)=O)C(C)C)C(=O)NCC(=O)N[C@H](CC(C)C)C(=O)N[C@H](CCCNC(=N)N)C(=O)N[C@H](CCCCN)C(=O)N[C@H](CCCNC(=N)N)C(=O)N[C@H](CCCNC(=N)N)C(=O)N[C@H](CCCNC(=N)N)C(=O)N[C@H](CCCNC(=N)N)C(=O)N[C@H](CCCNC(=N)N)C(=O)NCC(=O)N[C@@H](Cc1ccc2ccccc2c1)C(N)=O
B9: Compound 19 (peptide)
peptide: Dansyl-[Sar][dL][dNle][dR][dS][dV][dR][dL][dR][dV]G[dL][dR][dK][dR][dR][dR][dR][dR]-NH2
SMILES: CCCC[C@@H](NC(=O)[C@@H](CC(C)C)NC(=O)CN(C)S(=O)(=O)c1cccc2c(N(C)C)cccc12)C(=O)N[C@H](CCCNC(=N)N)C(=O)N[C@H](CO)C(=O)N[C@@H](C(=O)N[C@H](CCCNC(=N)N)C(=O)N[C@H](CC(C)C)C(=O)N[C@H](CCCNC(=N)N)C(=O)N[C@@H](C(=O)NCC(=O)N[C@H](CC(C)C)C(=O)N[C@H](CCCNC(=N)N)C(=O)N[C@H](CCCCN)C(=O)N[C@H](CCCNC(=N)N)C(=O)N[C@H](CCCNC(=N)N)C(=O)N[C@H](CCCNC(=N)N)C(=O)N[C@H](CCCNC(=N)N)C(=O)N[C@H](CCCNC(=N)N)C(N)=O)C(C)C)C(C)C
B10: Compound 17 (peptide)
peptide: Ac-[dL][dNle][dR][dS][dV][dR][dL][dR][dV][βAla][dL][dR][dK][dR][dR][dR][dR][dR]G[2Nal]-NH2
SMILES: CCCC[C@@H](NC(=O)[C@@H](CC(C)C)NC(C)=O)C(=O)N[C@H](CCCNC(=N)N)C(=O)N[C@H](CO)C(=O)N[C@@H](C(=O)N[C@H](CCCNC(=N)N)C(=O)N[C@H](CC(C)C)C(=O)N[C@H](CCCNC(=N)N)C(=O)N[C@@H](C(=O)NCCC(=O)N[C@H](CC(C)C)C(=O)N[C@H](CCCNC(=N)N)C(=O)N[C@H](CCCCN)C(=O)N[C@H](CCCNC(=N)N)C(=O)N[C@H](CCCNC(=N)N)C(=O)N[C@H](CCCNC(=N)N)C(=O)N[C@H](CCCNC(=N)N)C(=O)N[C@H](CCCNC(=N)N)C(=O)NCC(=O)N[C@@H](Cc1ccc2ccccc2c1)C(N)=O)C(C)C)C(C)C
B11: Compound 24 (peptide)
peptide: Ac-[dL][dNle][dR][dA][dV][dR][dL][dR][dV][βAla][dL][dR][Ahx][dR][Ahx][dR][Ahx][dR][Ahx][dR][Ahx][dR][Ahx][dY]-NH2
SMILES: CCCC[C@@H](NC(=O)[C@@H](CC(C)C)NC(C)=O)C(=O)N[C@H](CCCNC(=N)N)C(=O)N[C@H](C)C(=O)N[C@@H](C(=O)N[C@H](CCCNC(=N)N)C(=O)N[C@H](CC(C)C)C(=O)N[C@H](CCCNC(=N)N)C(=O)N[C@@H](C(=O)NCCC(=O)N[C@H](CC(C)C)C(=O)N[C@H](CCCNC(=N)N)C(=O)NCCCCCC(=O)N[C@H](CCCNC(=N)N)C(=O)NCCCCCC(=O)N[C@H](CCCNC(=N)N)C(=O)NCCCCCC(=O)N[C@H](CCCNC(=N)N)C(=O)NCCCCCC(=O)N[C@H](CCCNC(=N)N)C(=O)NCCCCCC(=O)N[C@H](CCCNC(=N)N)C(=O)NCCCCCC(=O)N[C@H](Cc1ccc(O)cc1)C(N)=O)C(C)C)C(C)C

In the test the target is human RAD51 (human) (UniProt Q06609). Put plainly: cell-based or functional assay.
Sequence of human RAD51 (human) (Q06609 2-339 limits assumed): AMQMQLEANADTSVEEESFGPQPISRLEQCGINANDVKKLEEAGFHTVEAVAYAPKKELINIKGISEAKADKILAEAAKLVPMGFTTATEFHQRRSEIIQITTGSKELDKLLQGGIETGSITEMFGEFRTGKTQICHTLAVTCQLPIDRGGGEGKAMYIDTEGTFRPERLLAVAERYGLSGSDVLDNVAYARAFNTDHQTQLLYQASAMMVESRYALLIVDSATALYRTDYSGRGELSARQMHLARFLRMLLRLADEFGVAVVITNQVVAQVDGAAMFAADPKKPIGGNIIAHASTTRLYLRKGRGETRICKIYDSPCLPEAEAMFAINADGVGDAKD
For B1, the IC50 was 25 µM. With B2 the figure was 18 µM; with B3, 14 µM; with B4, 8.6 µM. The molecule B5 showed an IC50 of 17 µM. Consider B6, for which the IC50 came out at 3500 µM. To B7 belongs 20.6 µM; to B8, 43 µM. In turn, B9 had a concentration for half-maximal inhibition (IC50) of 6.2 µM.

The molecule B10 gave a half-maximal inhibitory concentration (IC50) of 20 µM. As for B11, the IC50 was 6.2 µM.
